Results as given in the MegaScale stability set (Tsuboyama et al. 2023).

B1: EEHEE_rd3_0130 (parent)
chain: TKIIVNGKTFTAPTEEEAQKIAEKLAKKAGLTVHKKNGTFELK
B2: 5KPH (parent)
chain: EEKRQVKQVAKEKLLEQSPNSKVQVRRVQKQGNTIRVELELRTNGKKENYTVEVERQGNTWTVKRITRT

Variants of: B1
Test: folding stability dG (cDNA display proteolysis); higher = more stable
Details: PBS, room temperature

Folding stability dG [kcal/mol], by site and new letter:
L31: N -0.814, C -0.1, G -0.504, E -0.89, M 0.895, H -0.13, T -0.366, D -0.475, W 0.742, K -0.636, I -0.35, P -0.624, S -0.591, Q -0.255, A -0.168, F 0.713, V -0.031, R -0.423, Y 0.657
T32: P -0.446, S 0.621, E 0.222, A 0.577, Y 0.023, W -0.409, V 1.02, M 0.321, H 0.159, Q 0.523, D -0.061, G -0.284, L 0.291, N 0.28, K 0.69, F 0.022, C 1.05, I 0.92, R 0.561
H34: V 1.25, Y 1.14, L 0.902, F 0.97, I 1.2, Q 0.444, E 0.679, P -0.455, W 0.405, M 0.601, T 0.992, A 0.451, D 0.195, K 0.497, C 1.31, S 0.682, N 0.474, G 0.117, R 0.72
V33: F 0.358, E -0.529, K -0.149, S -0.023, W 0.592, I 1.13, M 0.559, D -0.376, T 0.223, Y 0.251, A 0.036, G -0.128, Q -0.574, L 0.891, C 1.13, N -0.582, R -0.007, H -0.447
K43: T 1.07, P -0.2, Q 0.615, R 1.07, L 1.18, V 1.3, Y 1.15, S 0.91, A 0.626, G 0.476, I 1.33, H 0.826, F 1.13, D 0.338, W 1.16, C 1.76, E 0.545, M 0.985, N 0.532
A29: R 1.04, H 2.12, W 3.21, Y 3.33, K 0.837, Q 0.726, P -0.744, L 2.45, T 1.2, G 0.616, S 0.857, D 0.326, F 2.88, V 0.495, M 2.08, C 2.56, I 0.979, N 1.17, E 0.607
E41: P 0.028, W 1.45, D -0.202, F 1.45, L 0.903, V 1.09, R -0.631, I 1.48, Q 0.186, H 0.56, Y 1.85, M 0.498, T -0.004, C 1.19, K -0.978
G30: V -0.549, W -0.249, H 0.531, N 0.349, P -0.624, D 0.07, I -0.078, L -0.179, Y -0.036, S 0.137, F -0.093, M 0.018, A -0.039, C 0.98, Q 0.163, E -0.258, K 0.272, R 0.057, T 0.204
L42: Y 0.019, T 0.203, K 0.146, I 0.782, V 0.79, F -0.203, H 0.251, Q 0.021, D 0.274, W 0.069, E 0.201, R -0.081, M 0, P 0.076, S 0.186, G 0.249, A 0.214, N 0.089
K28: N 0.582, P 0.128, Y 1.06, D 0.738, H 0.757, R 1.14, I 0.992, G 0.475, V 0.795, L 1.03, M 1.05, S 0.779, E 0.862, F 0.971, W 1.53, T 0.727, A 1.09, Q 0.873
T39: H 1.33, D 0.863, S 1.24, R 0.935, G 1.13, E 0.778, P 0.066, C 1.17, W 1.3, Y 1.57, A 1.47, V 1.39, L 0.663, N 1.12, I 1.44, M 1.14, F 1.21, Q 1.29, K 0.554
K27: W 0.749, P -0.957, Q 0.76, F 0.736, V 0.456, N 0.413, H 0.537, S 0.587, R 0.991, T 0.52, L 0.834, G 0.228, I 0.597, M 0.725, Y 0.616
K36: T 1.02, W 0.712, C 0.875, S 0.956, P -0.983, E 0.75, Q 0.8, F 0.986, A 0.698, I 1.56, L 1.01, M 0.882, Y 1.12, N 1.03, V 1.52, H 0.939, D 0.477, G 0.596, R 0.78
K35: Y 1.55, G 0.063, F 1.61, V 0.732, T 0.197, I 0.718, H 0.653, R 0.798, L 0.661, E 0.03, M 0.631, N 0.482, P -0.427, W 1.34, Q 0.41, A 0.318, S 0.33, D -0.099
F40: Y 0.608, L 0.724, R -0.061, P 0.146, H 0.087, C 0.982, S 0.04, T -0.035, K -0.039, N 0.021, V 0.436, Q 0.083, W 0.271, D 0.04, G -0.038, A -0.34, E 0.251, M 0.218, I 0.784
G38: W -0.047, F 0.05, A -0.621, H -0.107, K -0.088, D 0.488, E 0.033, C 0.297, N 0.509, T -0.511, Q -0.217, S -0.804, P 0.071, Y 0.009, R -0.474, L -0.199, M -0.52
N37: Y -0.556, P 0.201, V -0.477, M 0.06, A 0.339, E 0.63, T -0.324, S -0.174, K 0.391, Q 0.281, F -0.371, I -0.193, D 0.873, H -0.068, G 0.697, R -0.324, C 1.05, L 0.216

Variants of: B2
Test: as above
Details: PBS, room temperature

Folding stability dG [kcal/mol] of substitutions, site by site:
E2: F 3.16, G 3.24, D 3.9, I 3.93, A 3.63, H 3.5, C 3.69
E1: G 3.49, A 3.75, P 3.19, N 3.37, Y 2.92, Q 3.64, W 2.91, D 3.52, V 3.38, C 3.69, M 3.33, F 3, S 3.56, R 3.25, H 3.61, K 3.85, L 3.06, I 2.88, T 3.46
